Like-named read-outs stand apart in the source and are kept apart here.
Columns and labels:
[1] = target: JetAB complex (JetA2B4), full-length JetA and JetB (Pseudomonas aeruginosa PA14); assay: SEC + SEC-MALS
[2] = target: JetAB complex (JetA2B4), full-length JetA and JetB (Pseudomonas aeruginosa PA14); assay: SEC + SEC-MALS; remark: listed apart in the source
[3] = target: JetC (Wadjet SMC ATPase subunit, P. aeruginosa PA14), tagless wild type (Pseudomonas aeruginosa PA14); assay: SEC + SEC-MALS
[4] = target: JetAB complex (JetA2B4), full-length JetA and JetB (Pseudomonas aeruginosa PA14); assay: SEC-MALS
[5] = target: JetD (Wadjet nuclease subunit, P. aeruginosa PA14) (Pseudomonas aeruginosa PA14); assay: SEC + SEC-MALS

JetC (Wadjet SMC ATPase subunit, P. aeruginosa PA14), tagless wild type (natural protein)
stoichiometry N (JetC per JetA2B4) [1]: 4 | stoichiometry N (JetC per JetA2B4) [2]: 2 | stoichiometry N [3]: 2

JetC^head (JetC^E1022Q,L783A 1-284-[…]-781-1101) (domain or fragment)
stoichiometry N (JetC^head per JetA2B4) [4]: 2

JetD (Wadjet nuclease subunit, P. aeruginosa PA14) (natural protein)
stoichiometry N [5]: 2

From article PMC9637719
